Source: the supplement of paper PMC10598134
± gives the standard deviation.

Assay: collision cross section of unmodified peptide (TIMS, N2, iRT-aligned); higher = larger / more extended gas-phase ion
Procedure, shortened: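 Synthetic peptide pools (~100 fmol/µL in 2% acetonitrile/0.1% formic acid, iRT standard spiked 1:40) were separated on a 120-min nanoflow C18 gradient at 60 °C. They were analysed on a timsTOF Pro/HT (dda-PASEF, nitrogen, ~2.4 mbar) and identified with MaxQuant. 1/K0 was calibrated with three reference ions and aligned run-wise to the median iRT peptide deviation. Collision cross section came from the Mason-Schamp equation, averaging 1–3 technical replicates of the most abundant feature per charge state.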

Substance	collision cross section (charge state: 2) [Å²]	collision cross section (charge state: 3) [Å²]
DTGEKLTVAENEAETK	436.86 ± 2.7	520.99 ± 1.8
GFALVGVGSEASSKK	433.33 ± 1.5	506.74 ± 2.3
ELANFDPSRPGPPSGR	–	494.4 ± 1
MTLSVLSR	327.34 ± 0.14	–
GPPGAKGNK	312.31 ± 1.7	–
KVQFAPEK	329.36 ± 0.58	–
ILDLKTGTVK	361.56 ± 1.2	442.8 ± 7.1
YADLTEDQLPSCESLK	447.81 ± 1	–
SFDEVEGVFGRGGGR	414.68 ± 0.96	509.8 ± 1.2
TGGTQTDLFTCGKCK	431.32 ± 1.2	479.49 ± 5.3
ITESVAETAQTIK	394.65 ± 0.14	–
GVEAVGSYAENQR	378.71 ± 0.16	463.38 ± 1.1
TYVQDILR	349.04 ± 0.59	–
SNEEGSEEKGPEVR	397.33 ± 0.57	477.66 ± 4.4
EGFSIPVSADGFK	384.97 ± 0.14	–
EVVKPVPITSPAVSK	412.92 ± 0.57	534.95 ± 0.86
LEKTIDDLEEK	403.94 ± 1.9	470.73 ± 4.5
FTEYETQVK	363.82 ± 1.3	–
TAGSSGVTAGRPRPTAR	–	538.39 ± 0.86
DLYEPSHGAK	358.09 ± 0.48	429.53 ± 1.1
FSAYIKNSNPALNDNLEK	493.15 ± 3.7	521.97 ± 3.2

Substance	collision cross section (charge state: 2) [Å²]	collision cross section (charge state: 3) [Å²]
GGPGAPGAPGPKGESGDYK	431.57 ± 1	489.8 ± 6.1
YVGESEANIR	358.37 ± 0.55	–
GDYDLNAVR	340.54 ± 0.15	–
EPFSGDHSADGFEVTSR	–	491.61 ± 0.86
SGGRGVSVSSAR	352.78 ± 0.057	442.14 ± 3.7
DNNNSNNRGSYNR	–	461.19 ± 2.6
GPPPSYGGSSR	337.81 ± 0.59	–
SSSAGGQGSYVPLLR	402.55 ± 0.66	–
TQAYQDQKPGTSGLR	425.76 ± 1.4	489.83 ± 5.9
IGNSYFKEEK	377.24 ± 0.91	453.77 ± 3.2
VEPGSLESSPGLGRGR	425.39 ± 1.8	497.45 ± 0.11
VLPSITTEILK	373.13 ± 0.14	–
GSAPPGPVPEGSIR	377.29 ± 0.67	–
YRGDYDR	327.87 ± 0.56	412.63 ± 6.2
DAIHFYNKSLAEHR	440.43 ± 2.3	501.63 ± 3.9
ATVASSTQKFQDLGVK	459.73 ± 1.9	485.98 ± 5
GPPGPPGK	285.24 ± 0.86	–
VTLEVGKVIQQGR	428.45 ± 2.5	496.48 ± 2.3
RFSPPSSSLQPGK	393.03 ± 0.67	484.72 ± 0.22
PLPVALQTRLAK	398.31 ± 0.59	471.01 ± 3.4
LVLPSQAQARLPSGEVVK	482.13 ± 2.1	526.02 ± 0.85

Substance	collision cross section (charge state: 2) [Å²]	collision cross section (charge state: 3) [Å²]
GRGVGSPEPGPTAPYLGRR	–	516.55
SQLANTEPTK	350.96 ± 0.68	–
YTTNNSSEQR	353.04 ± 0.15	–
GTVPDDAVEALADSLGKK	478 ± 3.1	520.87 ± 1.8
VNALKNLQVK	370.39 ± 1.1	436.61 ± 6
LYAVHQEGNK	357.2 ± 1.5	449.31 ± 1.1
GIGRGTVQALHATGAR	428.55	501.79 ± 0.73
SRGAIISQYYNR	400.77 ± 1.6	465.8 ± 0.66
KDYQPGITFIVVQK	–	508.05 ± 1.2
VVDLLAPYAK	358.2 ± 7.9	–
SALAAAQTQVAEYK	422.48 ± 1.1	–
FLQEFYQDDELGKK	448.73 ± 2.1	492.87 ± 3.2
GQKGEPGLPGHPGK	378.64 ± 1.5	470.96 ± 1.2
HIGFVYHPTK	378.19 ± 1.1	450.25 ± 1.7
DAEAAEATAEGALKAEK	458.36 ± 2.4	544.24 ± 2.9
SPDEAYAIAKK	371.22 ± 1.1	435.25 ± 4.4
ISPVEESEDVSNK	399.42 ± 0.14	–
YTCSFCGK	338.71 ± 0.48	–
TPLTHALPGLSEQEGQK	–	495.4 ± 0.86
PRLPATGTFK	354.31 ± 1.3	450.95 ± 3.9
GVQYLNEIK	351.72 ± 0.74	–

Substance	collision cross section (charge state: 2) [Å²]	collision cross section (charge state: 3) [Å²]
HELQANCYEEVKDR	443.76 ± 2.4	527.87 ± 1.3
AVPSSPAGSAARGR	380.85 ± 0.71	489.36 ± 2
SSFAYKDQNENR	418.44 ± 1.2	454.53 ± 4.1
IVFSGNLFQHQEDSKK	493.09 ± 3.3	531.43 ± 2
YTAQVDAEEK	355.03 ± 0.55	–
GDNGSVGEPGPK	342.97 ± 0.86	–
GRGVGSPEPGPTAPYLGR	432.42	517.8 ± 0.62
VGIDTPDIDIHGPEGKLK	461.05 ± 2.5	538.36 ± 1.9
SSGPGGQNVNKVNSK	401.42 ± 1.8	447.95 ± 4.2
GLATFPSRGAK	368.08 ± 0.52	445.97 ± 5.5
VQGGALEDSQLVAGVAFKK	499.26 ± 4.6	546.92 ± 0.83
DYNVTANSK	328.46 ± 2	–
SSDLTDRVK	344.22 ± 0.14	424.95 ± 0.87
GEPGLPGHPGK	338.84 ± 0.58	–
IFDSEEILAGYK	391.02 ± 0.47	–
GERGPPGPPGR	331 ± 1.5	441.17 ± 1.4
LSSETYSQAK	348.96 ± 1.1	–
YGRGQLNYPLPDFSK	433.52	510.01 ± 10
LGTTPSVYGGAGGRGIR	444.42 ± 1.7	523.45 ± 1.1
